Test results: publication PMC6451128, “Structural and functional analysis of the nucleotide and DNA binding activities of the human PIF1 helicase”
Residue numbers refer to the chain shown, from its start.

Key:
Assay in all cases: EMSA; no nucleotide; 20 mM HEPES-NaOH pH 7.5 (Results say pH 7.2), 135 mM NaCl, 5% glycerol, 1 mM DTT, 1 mg/ml BSA, 20 min at 20 C; 0.4 nM T(35); G4 assay: 0.1 nM G4 DNA, 2% PEG 8000 instead of glycerol, 5 uM T(35) competitor
Settings in all cases: protein: recombinant; tags: His tag removed, GSRM left; label: 5' 32P (PNK)
hPIF1HD N495A = molecular target: T1, hPIF1HD N495A (human, UniProt Q9H611 206-620, N495A)
T1 sequence: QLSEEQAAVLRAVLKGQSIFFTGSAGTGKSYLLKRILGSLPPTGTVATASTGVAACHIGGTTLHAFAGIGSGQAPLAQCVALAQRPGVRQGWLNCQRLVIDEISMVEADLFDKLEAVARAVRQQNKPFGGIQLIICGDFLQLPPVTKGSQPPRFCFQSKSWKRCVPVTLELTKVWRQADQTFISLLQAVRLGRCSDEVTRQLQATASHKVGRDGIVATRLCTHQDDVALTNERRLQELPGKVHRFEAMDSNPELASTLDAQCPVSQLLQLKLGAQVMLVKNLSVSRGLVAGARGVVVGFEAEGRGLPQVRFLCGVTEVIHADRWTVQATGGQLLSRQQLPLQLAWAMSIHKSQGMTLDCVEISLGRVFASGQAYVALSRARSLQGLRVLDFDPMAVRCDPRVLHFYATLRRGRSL

hPIF1HD N486A = molecular target: T2, hPIF1HD N486A (human, UniProt Q9H611 206-620, N486A)
T2 sequence: T1 sequence with N281A, A290N

hPIF1HD K485E = molecular target: T3, hPIF1HD K485E (human, UniProt Q9H611 206-620, K485E)
T3 sequence: T1 sequence with K280E, A290N

Measured: binding signal

TTTTTTTTTTTTTTTTTTTTTTTTTTTTTTTTTTT (ssDNA) [poly-T(35)]
> 50 fold decrease in affinity vs WT: all assays above
